The values below are quoted from earlier work in PMC3511906.

Read-outs that look alike come from different tables or passages of the source.

The target in series [1] is CXCR1 (Mus musculus) (UniProt Q810W6).
Series [2] has the same target. The source holds these as a separate data set.
A further series deals with CXCR2 (Mus musculus) (UniProt P35343).
Chain of CXCR2 (Mus musculus) (P35343 whole entry): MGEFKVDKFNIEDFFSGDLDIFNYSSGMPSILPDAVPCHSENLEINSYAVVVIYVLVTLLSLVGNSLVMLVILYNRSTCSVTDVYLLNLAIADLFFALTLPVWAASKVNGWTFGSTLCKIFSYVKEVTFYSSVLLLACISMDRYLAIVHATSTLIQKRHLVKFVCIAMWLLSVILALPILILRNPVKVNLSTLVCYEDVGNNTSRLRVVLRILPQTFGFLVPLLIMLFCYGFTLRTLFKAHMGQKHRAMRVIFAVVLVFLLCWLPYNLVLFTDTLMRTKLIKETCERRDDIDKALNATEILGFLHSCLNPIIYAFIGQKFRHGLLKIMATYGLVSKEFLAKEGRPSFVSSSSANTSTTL

Chain of MIP-2 (P10889 28-100): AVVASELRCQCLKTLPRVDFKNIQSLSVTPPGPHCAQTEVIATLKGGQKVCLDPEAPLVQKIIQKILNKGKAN
Chain of CXCR1 (Mus musculus) (Q810W6 whole entry): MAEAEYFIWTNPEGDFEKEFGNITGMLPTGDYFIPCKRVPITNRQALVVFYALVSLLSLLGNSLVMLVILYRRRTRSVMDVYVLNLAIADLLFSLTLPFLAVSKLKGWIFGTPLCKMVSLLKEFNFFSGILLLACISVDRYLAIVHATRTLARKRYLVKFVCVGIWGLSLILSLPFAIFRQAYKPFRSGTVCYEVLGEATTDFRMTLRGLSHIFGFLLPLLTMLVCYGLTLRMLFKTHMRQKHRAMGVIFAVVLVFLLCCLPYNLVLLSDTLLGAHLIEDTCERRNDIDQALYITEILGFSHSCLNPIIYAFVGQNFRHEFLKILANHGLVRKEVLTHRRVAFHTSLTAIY
Chain of CXCL8 (P10145 28-99): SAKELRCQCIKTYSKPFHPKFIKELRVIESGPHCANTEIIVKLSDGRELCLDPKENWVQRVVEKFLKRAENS

Regarding CXCL8 (from UniProt P10145), the Kd – broadly, the equilibrium constant for the complex coming apart – with CXCR1 (Mus musculus) [1] is 10 nM.

MIP-2 (from UniProt P10889): the results for the Kd with CXCR1 (Mus musculus) [2] and with CXCR2 (Mus musculus) were 643 nM and 3.5 nM, respectively.
